From PMC10652100, “Bacterial RNA-free RNase P: Structural and functional characterization of multiple oligomeric forms of a minimal protein-only ribonuclease P” (The Journal of Biological Chemistry, 2023)

Experiments:
[1] = biological target: the molecule itself; assay: native MS; His-tagged Hth1307 in 200 mM ammonium acetate pH 7, nano-electrospray, Q-Exactive UHMR; 500-1000 nM protein
[2] = biological target: the molecule itself; assay: SEC; analytical, Superdex 200 Increase 5/150 GL, 50 mM Tris pH 8.5, 150 mM NaCl, 1 mM TCEP; Hth1307 from 93.6 nM upwards; A280
[3] = biological target: the molecule itself; assay: crystal structure; lower molecular weight fraction of Hth1307; 2 M ammonium sulfate, 0.1 M Bis-Tris pH 5.5, 4 C; space group C2221, two protomers in the asymmetric unit; tetramer by crystal symmetry
[4] = biological target: the molecule itself; assay: SEC; oligomers seen when purifying Aq880 (Superdex 200 pg 16/600; 50 mM Tris pH 8.5, 150 mM NaCl, 1 mM TCEP)

B1: His-tagged Hth1307 (enzyme, Hydrogenobacter thermophilus)
chain: MDTFVLDTSVFTNPDVYHQFEEDQLGAIENFISLASHTNANFFMPTSVYYEFTKMVSLGDLAPKFELVVRIRSPRKWGLMVPAEFLYEFIEEVRYRINKGLRIAEEHTKEAGKLAEEEVGRVVNRLREKYREALRAGIIDSKEDVDVLLLSYELDAILVSGDEGLRKWADRVGIKLIDPKNLRYIMENLTKVGR
notes: HARP (RNA-free RNase P) of Hydrogenobacter thermophilus, Hth1307; gene synthesised by Integrated DNA Technologies; Same construct as m2 (pMCSG7, N-terminal His6 and TEV site) with the tag left on; also called His-tagged Hydrogenobacter thermophilus HARP; source: E. coli BL21 Rosetta DE3, purified; not shown: His6, N-terminal, kept; copies: 14
- stoichiometry N [1]: 14

B2: Hydrogenobacter thermophilus HARP (Hth1307) (enzyme)
chain: B1 chain
notes: HARP (RNA-free RNase P) of Hydrogenobacter thermophilus, Hth1307; gene synthesised by Integrated DNA Technologies; Cloned into pMCSG7 (N-terminal His6 tag and TEV site); the tag was removed with TEV protease by the general purification protocol; also called Ht HARP; source: E. coli BL21 Rosetta DE3, purified (Ni-Sepharose, DEAE, TEV cleavage, second Ni-Sepharose, SEC); not shown: His6, …
- stoichiometry N [2]: 14
- stoichiometry N [3]: 4

B3: Aquifex aeolicus HARP (Aq880) (enzyme)
chain: MDVFVLDTSVFTNPEIYRTFEEDQRGAMETFIHLALNSRAEFYMPTSVYTEMRKIMDVGELWAEFEMVVKIRSPRRFQLTVPADFLYEFIEELRYRINKGLRIAEEHTREASGCEDVGKLIARLREKYREALRQGILDSKEDVDVLLLAYELDGVLVSADEGLRTWADKIGIKLIDPKNFKNILESLVRHRF
notes: HARP (RNA-free RNase P) of Aquifex aeolicus, Aq880, 23 kDa; gene synthesised by Integrated DNA Technologies; Cloned into pMCSG7 (N-terminal His6 tag and TEV site); the tag was removed with TEV protease, and residues of the site may be left at the N-terminus (surmised); also called HARP from A. aeolicus; Homolog of Aquifex RNase P; source: E. coli BL21 Rosetta DE3, purified (Ni-Sepharose, DEAE, …)
- stoichiometry N [4]: 4
